Patent publication US20260144862A1, “MATERIALS AND METHODS TO TREAT EPSTEIN-BARR VIRUS (EBV) AND EBV-INDUCED DISEASES” (Medizinische Universität Wien, priority 2022, published 2026)

Legend:
HLA-E [1] = experiment: HLA-E stabilization assay on peptide-pulsed K562-HLA-E cells; details: K562-HLA-E*0103/0103 or K562-HLA-E*0101/0101 cells, 300 μM peptide, 16 h, flow-cytometry
Procedure: HLA-E surface stabilization was induced as previously described^32. In brief, TAP-incompetent K562-HLA-E*0101/0101 and K562-HLA-E*0103/0103 (kindly provided by Thorbald van Hall, Leiden University Medical Center) were cultured in Iscove's Modified Dulbecco's Medium (IMDM)+10% FCS (both: Thermo-Scientific). […] (positive control), BZLF1-derived [sequence] or LMP-1 peptides (Peptides&Elephants) in 1 ml Opti-MEM (Thermo-Fisher) for 16 h at 37° C. Peptide-pulsed cells were either stained for HLA-E surface expression by flow-cytometry analysis or washed with complete medium and used for in vitro stimulations.
The following conjugated mouse anti-human mAB were used for flow-cytometry: BV421-CD56 (NCAM 16.2), BV421-CD8 (RPA-T8), BV510-NKG2A (131411), APC/H7-CD107a (H4A3), APC/CD21 (all: BD), APC-CD3 (UCHT1), APC/Cy7-IFNγ (B27), APC-HLA/E (all: Biolegend), APC-Cy7-Granzyme B (Abcore), BZLF1-Alexa488 (Novusbio). Dead cells were identified using LIVE/DEAD Fixable Green Dead Cell Stain Kit (Thermo-Scientific) or 7-Aminoactinomycin D (7-AAD, Invitrogen). Flow-cytometry analysis was performed on a FACSCanto2 platform and FACSDiva Version 10.7.2 (BD).

EBV B95-8 isolate = experiment: Virus (EBV) dissemination assay in K562-CR2-HLA-E cells; type: cell-based, Epstein-Barr virus; details: for viral spread (BZLF1+ K562-CR2-HLA-E cells); effect of peptide on NKG2A+ NK or NKG2A+ CD8+ T cell mediated prevention of the viral spread: 300 μM LMP-1 peptide, 2-14 days of co-culture
Procedure: For the virus dissemination assays, the marmoset B-lymphoblastoid cell line B95-8 was cultured in RPM1 1640 medium supplemented with 20 mM glutamine, 50 µg/ml gentamicin, 0.2 µg/ml amphotericin B and 10% FCS (Thermo-Scientific). Cells were then cultured in the presence of […] (Biomol) for two weeks. EBV was harvested from the supernatant and enriched by ultracentrifugation (30000 U/min, 90 min, 10° C.). The virus stocks were stored at −80° C. in RPMI 1640 medium+10% FCS+10% DMSO (all: Thermo-Scientific). The multiplicity of infection (MOI) of the viral stocks was determined on K562-CR2-HLA-E*0101/0101 and K562-CR2-HLA-E*0103/0103 cells by flow-cytometry.
RMA-S/HLA-E/LFA-3 cells (kindly provided by Chiara Romagnani, DRFZ, Berlin) were maintained in RPMI-1640+20 mM glutamine+10% FCS+20 μM β-mercaptoethanol+100 U/ml penicillin-streptomycin (all Thermo Fisher)+400 μg/ml hygromycin B+1 mg/ml G418 (both InvivoGen). 2×10^6 RMA-S/LFA3/HLA-E cells were incubated for 16 h at 37° C., 5% CO2, with 300 μM of respective peptides (Peptides&Elephants) in 1 ml serum-free OptiMEM (Thermo-Fisher). Cells were afterwards inactivated using 20 μg/mL Mitomycin C (Sigma Aldrich) at 37° C. for 30 minutes. Peptide pulsed RMA-S/LFA3/HLA-E cells were co-cultured with […] CFSE (Thermo-Fisher) stained CD56^+ or CD8^+ MACS-enriched cells for 7 days in RPMI+10% FCS. Proliferating (CFSE^low) NKG2A^+CD56^+ NK cells, NKG2A^+ CD8^+ T cells or […]-specific, HLA-E-restricted NKG2A^+ or NKG2A^− T cells were then sorted by FACS as described below.
Fresh K562-CR2-HLA-E*0101/0101 and K562-CR2-HLA-E*0103/0103 cells were then inactivated using 20 μg/mL Mitomycin C at 37° C. for 30 minutes and then infected with the EBV B95-8 isolate (MOI=1) for 24 h. The infected cells were then co-cultured together with the sorted NKG2A^+ CD56^+ NK cells, NKG2A^+ CD8^+ T cells or […]-specific, HLA-E-restricted NKG2A^+ or NKG2A^− T cells (E:T, 1:2). In some experiments, 300 μM of respective peptides was also added. At indicated time points, the cells were harvested and analyzed by flow-cytometry, as described below.

HLA-E [2] = biological target: T1, HLA-E (Homo sapiens, UniProt P13747); experiment: HLA-E stabilization by UL40 peptides on HLA-E-expressing RMA-S cells; type: cell-based; details: for Interpretation: HLA-E binding class of UL40 variant; for Mean MFI: HLA-E expression on the cell surface of RMA-S cells incubated with UL40 peptide; for HLA-E Upregulation: HLA-E-expressing RMA-S cells incubated with UL40 peptide
T1 construct: expressed in transfected cells; host or cells: mouse lymphoma cell line RMA-S/HLA-E/LFA-3, a gift from Chiara Romagnani, DRFZ Berlin
T1 sequence (P61769 21-119): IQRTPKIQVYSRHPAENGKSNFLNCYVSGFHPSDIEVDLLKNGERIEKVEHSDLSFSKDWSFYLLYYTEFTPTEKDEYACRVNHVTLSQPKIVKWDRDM
T1 sequence (P13747 22-358): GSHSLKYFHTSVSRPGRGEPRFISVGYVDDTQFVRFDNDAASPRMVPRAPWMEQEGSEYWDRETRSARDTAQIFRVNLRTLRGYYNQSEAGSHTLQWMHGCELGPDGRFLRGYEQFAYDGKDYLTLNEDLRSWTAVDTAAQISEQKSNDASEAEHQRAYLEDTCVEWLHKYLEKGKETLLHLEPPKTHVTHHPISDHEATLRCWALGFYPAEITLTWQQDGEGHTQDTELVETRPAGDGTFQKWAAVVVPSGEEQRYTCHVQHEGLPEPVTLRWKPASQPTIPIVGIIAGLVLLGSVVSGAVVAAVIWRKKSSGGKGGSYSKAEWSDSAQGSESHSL
Excerpt: Functionally, the expansion of NKG2C^+ NK cells in response to HCMV infections depends on a highly polymorphic HCMV UL40-encoded peptide in the respective infecting HCMV variant, which upregulates the NKG2C ligand HLA-E on the surface of HCMV-infected cells^52. […] HCMV variants were obtained from all 145 HCMV-seropositive MS patients during an episode of HCMV reactivation between EBV seroconversion and MS diagnosis, as well as from all HCMV seropositive EBNA^high (N=80) and EBNA^low (N=85) controls in any of the serum samples collected from the individuals over time. […] Therefore, we incubated HLA-E-expressing RMA-S cells with each of the 18 UL40 peptides and measured HLA-E expression on the cell surface.

HLA-E [3] = experiment: LMP-1 dependent HLA-E up-regulation assay in GlialCAM370-389-specific B-cells; type: cell-based, human; details: B-cells from 24 healthy blood donors transfected with LMP-1 peptide, 16 h
Procedure: For the HLA-E stabilization experiments, 5×10^6 viable CFSE stained PBMCs were cultured in RPMI-1640+10% FCS in the presence of 10 μg GlialCAM370-389 ([…]), 10 μg of random 20 amino acid peptides (negative control, GenScript) or without peptides (non-peptide control) and 10 ng/mL IL-2 (Peprotech) at 37° C. Every three days, fresh 10 μg GlialCAM370-389 and 10 ng/mL IL-2 were added. After 7 days of co-culture, GlialCAM370-389-specific B-cells were sorted. 1×10^5 GlialCAM370-389-specific B-cells were then individually transfected with the indicated concentrations of the LMP-1 peptides (Peptides&Elephants) using the Pierce Protein Transfection Reagent according to the manufacturer's instructions (Thermo Fisher). After 16 h, the cells were either fixed and analyzed for HLA-E expression by flow cytometry, as described below, or washed once with Opti-MEM I Reduced Serum Medium (Gibco) and subsequently used in NKG2A^+ NK cell inhibition experiments. For the NKG2A^+ NK cell inhibition experiments, sorted NKG2A^+NKG2C^−NKG2D^− NK cells from 24 healthy blood donors were cultured together with peptide-pulsed GlialCAM370-389 B-cells (E:T, 1:1) for 6 h at 37° C. After co-cultivation, the supernatant was removed, cleared by centrifugation (1000×g, 5 min), and analyzed using IFNγ ELISA according to the manufacturer's recommendations (Thermo Fisher).

NKG2C+ NK cells = experiment: NKG2C+ NK cell response elicited by UL40 peptides; design: species or system human; details: UL40 peptide variant encoded by infecting HCMV isolate

Sequence | Interpretation (HLA-E [2]) | Mean MFI (HLA-E [2]) | HLA-E Upregulation (HLA-E [2]) | other results
GGDPHLPPL [EBV LMP-1 peptide variant] | – | – | – | HLA-E upregulation / stabilization (surface expression of HLA-E) (HLA-E [1]): neither significant HLA-E upregulation; viral spread (BZLF1+ K562-CR2-HLA-E cells); effect of peptide on NKG2A+ NK or NKG2A+ CD8+ T cell mediated prevention of the viral spread (EBV B95-8 isolate): no inhibitory effect
GMAPRTLLL [HCMV UL40 peptide variant] | Low Binding (↑) | 1575 | 41.5% | –
GSDPHLPTL [EBV LMP-1 peptide variant] | – | – | – | HLA-E upregulation / stabilization (surface expression of HLA-E) (HLA-E [1]): neither significant HLA-E upregulation; viral spread (BZLF1+ K562-CR2-HLA-E cells); effect of peptide on NKG2A+ NK or NKG2A+ CD8+ T cell mediated prevention of the viral spread (EBV B95-8 isolate): no inhibitory effect
GTDPHLPTL [only rarely detected EBV LMP-1 peptide variant] | – | – | – | upregulation of HLA-E on the surface of GlialCAM370-389-specific B-cells (HLA-E [3]): stable upregulation of HLA-E; viral spread (BZLF1+ K562-CR2-HLA-E cells); effect of peptide on NKG2A+ NK or NKG2A+ CD8+ T cell mediated prevention of the viral spread (EBV B95-8 isolate): increased viral spread; inhibition of NKG2A+ CD8+ T cells in EBV-dissemination assay (granzyme B-expressing cells) (EBV B95-8 isolate; peptide-pulsed K562-CR2-HLA-E*0103/0103 and K562-CR2-HLA-E*0101/0101 cells, sorted NKG2A+ CD8+ T cells): caused the inhibition; inhibition of NKG2A+ NK cells in EBV-dissemination assay (granzyme B-expressing cells) (EBV B95-8 isolate; peptide-pulsed K562-CR2-HLA-E*0103/0103 and K562-CR2-HLA-E*0101/0101 cells, sorted NKG2A+ NK cells): caused the inhibition
VIAPRTLIL [HCMV UL40 peptide variant] | Low Binding (↑) | 1541 | 40.6% | –
VLAPRTLLL [HCMV UL40 peptide variant] | Low Binding (↑) | 2059 | 54.2% | –
VMAPRILIL [HCMV UL40 peptide variant] | Low Binding (↑) | 2056 | 54.2% | –
VMAPRILVL [HCMV UL40 peptide variant] | Low Binding (↑) | 2299 | 60.5% | –
VMAPRSLIL [HCMV UL40 peptide variant] | Low Binding (↑) | 2074 | 54.6% | –
VMAPRSLLL [HCMV UL40 peptide variant] | Low Binding (↑) | 2351 | 61.9% | –
VMAPRTLFL [HCMV UL40 peptide variant] | High Binding (↑↑) (a high-level of HLA-E stabilization, as defined by an HLA-E upregulation of >99.5%) | 3797 | 100.0% | NKG2C+ NK cell response (NKG2C+ NK cells): more potent NKG2C^+ NK cell response
VMAPRTLLL [HCMV UL40 peptide variant] | High Binding (↑↑) (a high-level of HLA-E stabilization, as defined by an HLA-E upregulation of >99.5%) | 3776 | 99.5% | NKG2C+ NK cell response (NKG2C+ NK cells): more potent NKG2C^+ NK cell response
VMAPRTLVL [HCMV UL40 peptide variant] | High Binding (↑↑) (a high-level of HLA-E stabilization, as defined by an HLA-E upregulation of >99.5%) | 3782 | – | NKG2C+ NK cell response (NKG2C+ NK cells): more potent NKG2C^+ NK cell response
VMAPWTLIL [HCMV UL40 peptide variant] | Low Binding (↑) | 1210 | 31.9% | –
VMAPWTLVL [HCMV UL40 peptide variant] | Low Binding (↑) | 1503 | 39.6% | –
VMGPRTLIL [HCMV UL40 peptide variant] | Low Binding (↑) | 1858 | 48.9% | –
VMTPRTLIL [HCMV UL40 peptide variant] | Low Binding (↑) | 2633 | 69.3% | –
VMTPRTLLL [HCMV UL40 peptide variant] | Low Binding (↑) | 2519 | 66.3% | –
VMTPRTLVL [HCMV UL40 peptide variant] | Low Binding (↑) | 2488 | 65.5% | –
VVAPRTLVL [HCMV UL40 peptide variant] | Low Binding (↑) | 1840 | 48.5% | –
